Drawing on patent publication US20120231467A1, this text covers Kd for 1 sequence.

The target of the data set is Toxin B, native full-length (270 kDa) (Clostridium difficile) (UniProt P18177). In words: filter. Conditions: 2NapdU at every N (replaces all dT).

What is called Kd is the free concentration of one partner at which half of the binding sites on the other are occupied at equilibrium, for simple one-to-one binding.

UniProt P18177, sequence (P18177 2-2366): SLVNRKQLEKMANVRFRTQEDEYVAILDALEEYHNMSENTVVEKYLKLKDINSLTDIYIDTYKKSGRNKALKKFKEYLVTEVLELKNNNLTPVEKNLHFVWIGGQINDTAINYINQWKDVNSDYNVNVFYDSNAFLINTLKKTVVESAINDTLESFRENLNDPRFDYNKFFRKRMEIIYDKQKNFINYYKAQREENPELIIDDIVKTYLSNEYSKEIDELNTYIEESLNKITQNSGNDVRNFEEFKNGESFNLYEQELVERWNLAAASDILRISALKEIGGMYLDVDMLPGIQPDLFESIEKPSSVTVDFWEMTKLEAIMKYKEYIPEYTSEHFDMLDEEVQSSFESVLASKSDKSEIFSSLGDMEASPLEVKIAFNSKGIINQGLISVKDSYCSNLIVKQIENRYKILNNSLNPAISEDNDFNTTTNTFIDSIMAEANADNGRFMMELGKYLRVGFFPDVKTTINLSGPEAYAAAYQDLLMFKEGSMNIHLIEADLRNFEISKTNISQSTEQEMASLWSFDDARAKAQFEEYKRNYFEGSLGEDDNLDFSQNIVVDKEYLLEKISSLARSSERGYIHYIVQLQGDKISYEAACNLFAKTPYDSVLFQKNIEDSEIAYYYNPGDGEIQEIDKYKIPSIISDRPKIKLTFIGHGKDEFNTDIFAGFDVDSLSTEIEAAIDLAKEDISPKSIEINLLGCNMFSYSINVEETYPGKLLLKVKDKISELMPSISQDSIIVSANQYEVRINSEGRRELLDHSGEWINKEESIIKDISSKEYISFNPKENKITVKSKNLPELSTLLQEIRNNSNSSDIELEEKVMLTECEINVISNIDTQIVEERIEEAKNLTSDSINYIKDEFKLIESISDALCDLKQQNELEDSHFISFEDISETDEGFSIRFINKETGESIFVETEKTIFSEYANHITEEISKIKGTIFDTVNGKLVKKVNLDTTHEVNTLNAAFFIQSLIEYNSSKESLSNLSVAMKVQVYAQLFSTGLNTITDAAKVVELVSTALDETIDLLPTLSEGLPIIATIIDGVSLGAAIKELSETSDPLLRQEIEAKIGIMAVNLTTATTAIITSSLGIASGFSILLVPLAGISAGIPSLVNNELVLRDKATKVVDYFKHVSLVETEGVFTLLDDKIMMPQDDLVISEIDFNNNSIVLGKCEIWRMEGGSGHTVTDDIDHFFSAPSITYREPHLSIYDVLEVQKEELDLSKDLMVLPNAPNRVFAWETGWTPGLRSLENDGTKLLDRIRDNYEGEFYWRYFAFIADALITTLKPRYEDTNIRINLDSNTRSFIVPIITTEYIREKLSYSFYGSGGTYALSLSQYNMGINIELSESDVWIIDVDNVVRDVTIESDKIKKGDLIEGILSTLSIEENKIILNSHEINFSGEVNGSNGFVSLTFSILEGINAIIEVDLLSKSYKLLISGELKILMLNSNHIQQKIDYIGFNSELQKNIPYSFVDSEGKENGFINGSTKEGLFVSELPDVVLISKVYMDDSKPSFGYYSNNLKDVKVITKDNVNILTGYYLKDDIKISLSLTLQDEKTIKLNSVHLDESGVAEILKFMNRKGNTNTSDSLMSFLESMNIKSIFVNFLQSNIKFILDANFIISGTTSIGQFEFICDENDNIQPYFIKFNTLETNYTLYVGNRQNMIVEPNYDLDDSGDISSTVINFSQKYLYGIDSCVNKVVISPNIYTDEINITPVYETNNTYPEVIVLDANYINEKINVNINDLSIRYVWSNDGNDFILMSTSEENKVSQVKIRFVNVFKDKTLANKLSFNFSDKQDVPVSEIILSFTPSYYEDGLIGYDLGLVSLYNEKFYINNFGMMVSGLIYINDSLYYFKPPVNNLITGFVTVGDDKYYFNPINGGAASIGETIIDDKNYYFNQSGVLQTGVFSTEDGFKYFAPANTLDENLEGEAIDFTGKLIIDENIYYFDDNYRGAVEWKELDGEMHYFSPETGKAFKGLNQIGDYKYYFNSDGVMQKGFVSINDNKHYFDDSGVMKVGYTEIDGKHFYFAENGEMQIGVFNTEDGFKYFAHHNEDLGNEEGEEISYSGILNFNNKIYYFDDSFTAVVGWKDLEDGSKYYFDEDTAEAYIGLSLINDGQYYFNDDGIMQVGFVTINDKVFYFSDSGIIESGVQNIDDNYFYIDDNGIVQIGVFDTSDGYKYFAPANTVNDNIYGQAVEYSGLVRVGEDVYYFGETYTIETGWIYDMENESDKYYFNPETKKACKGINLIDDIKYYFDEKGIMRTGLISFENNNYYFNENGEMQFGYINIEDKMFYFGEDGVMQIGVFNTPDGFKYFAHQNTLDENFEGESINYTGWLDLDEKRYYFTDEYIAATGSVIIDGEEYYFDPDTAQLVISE

Turning to “CNNNNNNACCGCNGCANGACNNNAGCGGCAGNCGNGNGNG [5566-77]”, the dissociation constant Kd came out at 0.23 nM. This counts as sub-nanomolar.
